The source of these data is US20100310573A1.

The assay has as its target recombinant human CD4 (catalogue number: 514-CD/CF, manufactured by R&D Systems) (human) (UniProt P01730). Description: SPR, Biacore T100; antibody captured on anti-mouse IgG chip, recombinant human CD4 flowed; 1:1 binding model.
Turning to “anti-CD4 mouse monoclonal antibody OKT4 (manufactured by BioLegend)”, the dissociation constant Kd is 2.9 nM, the koff turned out to be 0.00306 s⁻¹ and the association rate constant (kon) was found to be 1.05e+06 M⁻¹ s⁻¹.

“Leu-3a (BD Biosciences), commercially available anti-human CD4 mouse antibody”: the Kd turned out to be 0.117 nM, the koff came out at 0.000129 s⁻¹ and the kon was 1.1e+06 M⁻¹ s⁻¹.

“13B8.2 (Beckman Coulter), commercially available anti-human CD4 mouse antibody”: the Kd came to 0.352 nM, the dissociation rate constant (koff) was 0.000156 s⁻¹ and the on-rate constant (kon) stood at 444000 M⁻¹ s⁻¹.
